Test [1] concerns multiple matrix-metalloproteases (MMPs). Put plainly: Matrix Metalloproteinase (MMP) Inhibitor Profiling Kit, positive control. Format: biochemical. To be noted: P<0.01. On the procedure: FIG. 8A-B. Selectivity of P12-3A for IDE vis-à-vis other proteases. Activity of P12-3A (100 μM) against (A) multiple matrix-metalloproteases (MMPs) and (B) multiple peptidases of different protease classes. […] Data are mean±SEM, n=8-16 per group. P<0.05 by 2-tailed Student's t-test. […] See Experimental Procedures for details. NEP, neprilysin; mCatD, murine cathepsin D; hCatD, human cathepsin D.
Degradation Assays—IDE activity was quantified by monitoring the degradation of (7-methoxycoumarin-4-yl)acetic acid-[…](2,4-dinitrophenyl) (FRET1, 5 μM) (49,55), fluoresceinated and biotinylated amyloid β-protein (FAβB; 500 nM) or recombinant human insulin (50 nM) in PBS supplemented with 0.05% BSA. FRET1 degradation was measured by changes in fluorescence (λex=340 nm, λem=420 nm); FAβB degradation was monitored by fluorescence polarization (λex=488 nm, λem=525 nm), as described (56); and insulin degradation was quantified by ELISA. In vitro activity assays incorporated recombinant human IDE (1 nM) purified from bacteria (35). For quantitation of insulin degradation in primary murine skin fibroblasts, cells (1×10^5/well) were plated in 96-well plates and maintained in DMEM supplemented with 10% fetal bovine serum (FBS), 2 mM glutamine, penicillin and streptomycin. […]

Test [2] concerns the target T1, IDE (Homo sapiens, UniProt P14735).
T1 construct: made in house; host or cells: bacteria
T1 sequence (P14735 1-1019): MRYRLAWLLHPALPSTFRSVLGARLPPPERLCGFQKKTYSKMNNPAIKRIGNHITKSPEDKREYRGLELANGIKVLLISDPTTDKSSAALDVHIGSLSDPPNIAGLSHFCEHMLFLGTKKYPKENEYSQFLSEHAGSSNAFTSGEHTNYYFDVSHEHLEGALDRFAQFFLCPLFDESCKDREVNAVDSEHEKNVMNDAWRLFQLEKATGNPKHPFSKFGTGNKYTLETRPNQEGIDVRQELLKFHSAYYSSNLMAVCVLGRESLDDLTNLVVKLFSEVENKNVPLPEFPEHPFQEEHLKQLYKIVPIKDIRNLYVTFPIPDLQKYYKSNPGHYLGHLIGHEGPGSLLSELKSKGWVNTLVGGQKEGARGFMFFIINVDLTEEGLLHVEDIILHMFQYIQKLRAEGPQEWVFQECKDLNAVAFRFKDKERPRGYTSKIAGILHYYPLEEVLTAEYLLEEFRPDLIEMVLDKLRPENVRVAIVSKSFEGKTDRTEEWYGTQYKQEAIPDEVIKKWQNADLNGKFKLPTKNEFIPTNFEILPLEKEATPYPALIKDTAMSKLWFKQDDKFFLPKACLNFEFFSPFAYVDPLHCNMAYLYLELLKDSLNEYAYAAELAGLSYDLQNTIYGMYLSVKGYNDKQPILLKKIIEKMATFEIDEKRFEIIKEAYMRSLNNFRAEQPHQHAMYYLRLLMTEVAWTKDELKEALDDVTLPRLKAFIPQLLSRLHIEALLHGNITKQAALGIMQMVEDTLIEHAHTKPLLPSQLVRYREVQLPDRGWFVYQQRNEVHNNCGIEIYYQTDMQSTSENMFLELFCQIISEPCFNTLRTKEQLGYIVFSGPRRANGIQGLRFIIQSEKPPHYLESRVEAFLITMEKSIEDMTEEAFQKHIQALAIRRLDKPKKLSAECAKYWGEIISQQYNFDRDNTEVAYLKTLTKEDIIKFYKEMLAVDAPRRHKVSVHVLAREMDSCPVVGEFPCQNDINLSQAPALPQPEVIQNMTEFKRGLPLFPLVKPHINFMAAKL
Put plainly: IDE protease activity assay with FRET1 substrate. Format: biochemical. As to conditions: Ki converted from IC50 with the Cheng-Prusoff equation.

In test [3] the target is T1, IDE. Put plainly: IDE protease activity assay, insulin degradation quantified by ELISA. As to conditions: substrate recombinant human insulin; Ki converted from IC50 with the Cheng-Prusoff equation; read-out: Ki Insulin. Format: biochemical. The procedure:
To assess the extent to which these peptide sequences inhibit IDE, we quantified their potency in protease activity assays using recombinant human IDE and two different substrates: FRET1, a fluorogenic peptide (45), and recombinant human insulin.
Degradation Assays—IDE activity was quantified by monitoring the degradation of (7-methoxycoumarin-4-yl)acetic acid-[…](2,4-dinitrophenyl) (FRET1, 5 μM) (49,55), fluoresceinated and biotinylated amyloid β-protein (FAβB; 500 nM) or recombinant human insulin (50 nM) in PBS supplemented with 0.05% BSA. FRET1 degradation was measured by changes in fluorescence (λex=340 nm, λem=420 nm); FAβB degradation was monitored by fluorescence polarization (λex=488 nm, λem=525 nm), as described (56); and insulin degradation was quantified by ELISA. In vitro activity assays incorporated recombinant human IDE (1 nM) purified from bacteria (35). For quantitation of insulin degradation in primary murine skin fibroblasts, cells (1×10^5/well) were plated in 96-well plates and maintained in DMEM supplemented with 10% fetal bovine serum (FBS), 2 mM glutamine, penicillin and streptomycin. After addition of insulin (10 nM or 100 nM), samples of conditioned medium were removed daily and quickly frozen, then insulin levels were quantified in parallel by ELISA according to manufacturer's recommendations (Crystal Chem, Downers Grove, Ill., USA). Assessment of the activity of P12-3A against a variety of matrix-metalloproteases was conducted using the Matrix Metalloproteinase (MMP) Inhibitor Profiling Kit, Fluorometric RED (Enzo Life Sciences, Inc., Farmingdale, N.Y., USA) according to manufacturer's recommendations using the broad-spectrum MMP inhibitor, NNGH, as a positive control.

Test [4] addresses T2, recombinant human insulin-degrading enzyme (IDE) (human, UniProt P14735 42-1019, limits assumed).
T2 construct: Used at 1 nM in the in vitro activity assays; immobilised on plates for phage panning
T2 sequence (looked up): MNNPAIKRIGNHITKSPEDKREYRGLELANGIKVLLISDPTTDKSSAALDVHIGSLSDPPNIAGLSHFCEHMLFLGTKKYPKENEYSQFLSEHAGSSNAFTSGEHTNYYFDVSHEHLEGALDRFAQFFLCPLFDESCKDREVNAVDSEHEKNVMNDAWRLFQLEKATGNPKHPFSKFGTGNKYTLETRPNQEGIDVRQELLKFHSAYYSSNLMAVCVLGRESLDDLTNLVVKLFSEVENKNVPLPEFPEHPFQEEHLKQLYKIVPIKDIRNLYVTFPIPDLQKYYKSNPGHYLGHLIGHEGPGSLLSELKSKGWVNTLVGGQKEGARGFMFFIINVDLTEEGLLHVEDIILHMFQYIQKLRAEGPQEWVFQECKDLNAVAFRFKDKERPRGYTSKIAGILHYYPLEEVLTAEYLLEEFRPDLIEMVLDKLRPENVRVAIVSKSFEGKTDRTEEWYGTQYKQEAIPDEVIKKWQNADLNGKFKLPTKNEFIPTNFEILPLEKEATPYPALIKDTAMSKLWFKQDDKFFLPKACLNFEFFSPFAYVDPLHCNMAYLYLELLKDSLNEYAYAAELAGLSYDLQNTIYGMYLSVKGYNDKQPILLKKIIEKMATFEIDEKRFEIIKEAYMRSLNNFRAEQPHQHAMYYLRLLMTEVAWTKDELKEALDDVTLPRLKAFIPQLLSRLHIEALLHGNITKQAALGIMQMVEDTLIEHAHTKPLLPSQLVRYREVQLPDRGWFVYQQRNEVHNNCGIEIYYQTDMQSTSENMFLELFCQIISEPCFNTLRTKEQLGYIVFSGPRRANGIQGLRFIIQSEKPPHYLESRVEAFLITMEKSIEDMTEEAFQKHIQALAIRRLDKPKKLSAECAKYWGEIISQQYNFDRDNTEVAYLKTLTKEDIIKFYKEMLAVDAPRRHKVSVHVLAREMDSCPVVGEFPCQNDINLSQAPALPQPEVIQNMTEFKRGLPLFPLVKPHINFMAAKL
Put plainly: IDE activity assay, insulin substrate (ELISA); IC50 converted to Ki (Cheng-Prusoff).

For test [5], the target named is T2, recombinant human insulin-degrading …. The experiment in a line: IDE activity assay, FRET1 substrate; IC50 converted to Ki (Cheng-Prusoff).
For test [6] the target is unchanged. The experiment in a line: FRET1 activity assay after 0 or 4 h pre-incubation of the peptide with IDE.
Test [7] shares this target. The experiment in a line: IDE activity assay, insulin substrate (ELISA). On the technique in general: An ELISA detects its analyte on a solid surface through an enzyme-linked reagent.
The target is the same in test [8]. Put plainly: IDE activity assay, FRET1 degradation.
The target is the same in test [9]. The experiment in a line: IDE activity assay, FAβB degradation (fluorescence polarization).

Where a SMILES comes first, the peptide text is derived from it. Bridges are numbered along the chain shown (N, C = ends). Where no end group is shown, it is not given here.

On to `COc1ccc(S(=O)(=O)N(CC(=O)NO)CC(C)C)cc1` [NNGH], for which the “inhibition of MMPs by positive control” value in test [1] is given as “significant inhibition”. With `CC[C@H](C)[C@H](NC(=O)[C@@H]1CCCN1C(=O)[C@H](CO)NC(=O)[C@@H](N)Cc1c[nH]c2ccccc12)C(=O)N[C@@H](CO)C(=O)NCC(=O)N[C@@H](CCCCN)C(=O)N[C@@H](Cc1ccccc1)C(=O)N[C@@H](Cc1ccccc1)C(=O)N[C@@H](CCC(N)=O)C(=O)N[C@@H](CCCNC(=N)N)C(=O)N[C@@H](Cc1ccccc1)C(=O)O` [Peptide P12-4] (H-WSPISGKFFQRF-OH), the values for the Ki in [2] and in test [3] were 3.9 ± 0.5 µM and 1.5 ± 0.3 µM, respectively.

B1: P12-3 (peptide)
peptide: H-QSLPWCYPHCVT-OH
modifications: not fully specified; cysteine pairing not given here
notes: Two cysteines predicted to form a disulfide bond; not deliberately cyclized before testing
As for B1, the Ki in test [4] worked out at 3.9 µM; in [5], 8.9 µM.

B2: P12-3A (QSLPWCYPHCVT-amide), as first synthesized, not deliberately cyclized (peptide)
peptide: H-QSLPWCYPHCVT-NH2
modifications: not fully specified; printed as QSLPWCYPHCVT-amide; cysteine pairing not given here
notes: also called C-terminally amidated variant of P12-3
As to B2, in test [6], the “fold increase in potency at the 4-h time point relative to t=0” value was found to be 1 fold.

B3: P12-1C (peptide)
peptide: Ac-FRQWWQPS
notes: also called N-terminally truncated variant of P12-1
In the case of B3, the results for the Ki in test [5] and in test [7] were 139 µM and > 10 µM, respectively. Regarding QSLPWCYPHCVT-NH2 (disulfide 6-10 (inferred), also called cyclized P12-3A) [P12-3A, deliberately cyclized, highly pure cosmetic-grade version], the Ki in [8] was determined as 2.7 µM; in [9], 2.1 µM.

What is called Ki is a measure of affinity in units of concentration, obtained from inhibition or displacement.

For the origin of these results see patent publication US11555055B2, “Peptide inhibitors of insulin-degrading enzyme” (The Regents of the University of California, priority 2017, dated 2023).
